Reference: patent publication US20120156803A1
pKd: −log10 of the molar value.

What was measured:
[1] = target: S. frugiperda (FAW) BBMV proteins / receptor(s) (brush border membrane vesicles from wild type, Cry1Fa-sensitive larvae) (Spodoptera frugiperda); assay: pull-down competition on FAW BBMVs; ^125I-Cry1Fa remaining bound with 1000 nM unlabeled Cry1Ab competitor
[2] = target: S. frugiperda (FAW) BBMV proteins / receptor(s) (brush border membrane vesicles from wild type, Cry1Fa-sensitive larvae) (Spodoptera frugiperda); assay: pull-down competition on FAW BBMVs; ^125I-Cry1Fa remaining bound with 1000 nM unlabeled Cry1Ca competitor
[3] = target: O. nubilalis (ECB) BBMV proteins (brush border membrane vesicles from wild type, Cry1Fa-sensitive larvae) (Ostrinia nubilalis); assay: pull-down assay on ECB BBMVs, no competitor, phosphor-imaging densitometry
[4] = target: S. frugiperda (FAW) BBMV proteins / receptor(s) (brush border membrane vesicles from wild type, Cry1Fa-sensitive larvae) (Spodoptera frugiperda); assay: pull-down assay on FAW BBMVs, no competitor, phosphor-imaging densitometry
[5] = target: BBMVs prepared from Cry1Fa-resistant O. nubilalis (rECB) larvae (Ostrinia nubilalis); assay: pull-down assay on rECB BBMVs, no competitor, phosphor-imaging densitometry
[6] = target: BBMVs prepared from Cry1Fa-resistant S. frugiperda (rFAW) larvae (Spodoptera frugiperda); assay: pull-down assay on rFAW BBMVs, no competitor, phosphor-imaging densitometry
[7] = target: O. nubilalis (ECB) BBMV proteins (brush border membrane vesicles from wild type, Cry1Fa-sensitive larvae) (Ostrinia nubilalis); assay: saturation binding of radioligand (0.5-20 nM) to 150 ug/mL ECB BBMV proteins, centrifugation and gamma counting
[8] = target: O. nubilalis (ECB) BBMV proteins (brush border membrane vesicles from wild type, Cry1Fa-sensitive larvae) (Ostrinia nubilalis); assay: pull-down competition on ECB BBMVs; ^125I-Cry1Fa remaining bound with 1000 nM unlabeled Cry1Fa competitor
[9] = target: S. frugiperda (FAW) BBMV proteins / receptor(s) (brush border membrane vesicles from wild type, Cry1Fa-sensitive larvae) (Spodoptera frugiperda); assay: pull-down competition on FAW BBMVs; ^125I-Cry1Fa remaining bound with 1000 nM unlabeled Cry1Fa competitor
[10] = target: BBMVs prepared from Cry1Fa-resistant O. nubilalis (rECB) larvae (Ostrinia nubilalis); assay: pull-down competition on rECB BBMVs; ^125I-Cry1Fa remaining bound with 1000 nM unlabeled Cry1Fa competitor

Cry1Ab core toxin protein (from UniProt P0A370 29-607) (ligand)
Relative Amounts of radio-iodinated Cry1Fa Protein Bound [1]: -4%

Cry1Ca core toxin protein (from UniProt P0A373) (ligand)
Relative Amounts of radio-iodinated Cry1Fa Protein Bound [2]: 50%

^125I radiolabeled fluorescein-Cry1Fa core toxin protein (trypsin-truncated) (from UniProt Q03746 1-603) (ligand)
Relative Amounts of radio-iodinated Cry1Fa Protein Bound [3]: 100% | Relative Amounts of radio-iodinated Cry1Fa Protein Bound [4]: 100% | Relative Amounts of radio-iodinated Cry1Fa Protein Bound [5]: 64% | Relative Amounts of radio-iodinated Cry1Fa Protein Bound [6]: 10% | Bmax [7]: 37 fmol/mg | pKd [7]: 7.96

non-radioactive (unlabeled) Cry1Fa core toxin protein (trypsin-truncated) (from UniProt Q03746 1-603) (ligand)
Relative Amounts of radio-iodinated Cry1Fa Protein Bound [8]: 31% | Relative Amounts of radio-iodinated Cry1Fa Protein Bound [9]: 0% | Relative Amounts of radio-iodinated Cry1Fa Protein Bound [10]: 51%
